Reference: the DeepSol protein solubility set

Assay: soluble on expression in E. coli; label from the status in PepcDB or PDB records

**Q.** For “GMTTWKELTDNNPAHSENYAQRWRNLAAAGNDIYGEARLIDAMAPRGAKILDAGCGQGRIGGYLSKQGHDVLGTDLDPILIDYAKQDFPEARWVVGDLSVDQISETDFDLIVSAGNVMGFLAEDGREPALANIHRALGADGRAVIGFGAGRGWVFGDFLEVAERVGLELENAFESWDLKPFVQGSEFLVAVFTKK”, which “soluble on expression in E. coli” value is on record?
**A.** soluble

**Q.** With “GMVEKPQLKFKSPIDNSESHPFIPLLKEKPNALKPLSESLRLVDDDENNPSHYPHPYEYEIDHQEYSPEILQIREEIPSKSWDDSVPIWVDTSTELESMLEDLKNTKEIAVDLEHHDYRSYYGIVCLMQISTRERDYLVDTLKLRENLHILNEVFTNPSIVKVFHGAFMDIIWLQRDLGLYVVGLFDTYHASKAIGLPRHSLAYLLENFANFKTSKKYQLADWRIRPLSKPMTAAARADTHFLLNIYDQLRNKLIESNKLAGVLYESRNVAKRRFEYSKYRPLTPSSEVYSPIEKESPWKILMYQYNIPPEREVLVRELYQWRDLIARRDDESPRFVMPNQLLAALVAYTPTDVIGVVSLTNGVTEHVRQNAKLLANLIRDALRNIKNTNEEATPIPSSETKADGILLET” as the sequence, how does the “soluble on expression in E. coli” value read?
**A.** soluble

**Q.** Which “soluble on expression in E. coli” value does the source give for “GNPLRKFKLVFLGEQSVGKTSLITRFMYDSFDNTYQATIGIDFLSKTMYLEDRTVRLQLWDTAGLERFRSLIPSYIRDSTVAVVVYDITNVNSFQQTTKWIDDVRTERGSDVIIMLVGNKTDLADKRQVSIEEGERKAKELNVMFIETSAKAGYNVKQLFRRVAAALPGMESTQDRSREDMIDIKLEK” here?
**A.** soluble

**Q.** With “GNYPRNVGLSPLSGVDPSEVFDVTPYAVATDKYFIKNATTYHLPRKLKVSYSNCYTDTAHCSIQDLGFVATLKNDEPYFRVFLGGGLGKQPKVALELDELIKPKDALYCVEGMIKFFMDYGNYENKNRARVRYMVESLGEELFLEKFKEYYKLEKENGSLELNI” as the sequence, how does the “soluble on expression in E. coli” value read?
**A.** not soluble

**Q.** Which “soluble on expression in E. coli” value does the source give for “GPGGALPTCPACHKITPRTEAPVSSVSNSLENALHTSAHSTEESLPKRPLGKHSKVSVEKIDLKGLSHTKNDRNVECSFEVLWSDSSITSVTKSSSEVTEFISKLCQLYPEENLEKLIPCLAGPDAFYVERNHVDLDSGLRYLASLPSHVLKNDHVRRFLSTSSPPQQLQSPSPGNPSLSKVGTVMGVSGRPVCGVAGIPSSQSGAQHHGQHPAGSAAPLPHCSHAGSAGSALAYRTQMDTSPAILMPSSLQTPQTQEQNGILDWLRKLRLHKYYPVFKQLSMEKFLSLTEEDLNKFESLTMGAKKKLKTQLELEKEKSERRCLNPSAPPLVTSSGVARVPPTSHVGPVQSGRGSHAAELRVEVEQPHHQLPREGSSSEYSSSSSSPMGVQAREESSDSAEENDRRVEIHLESSDKEKPVMLLNHFTSSSARPTAQVLPVQNEASSNPSGHHPLPPQMLSAASHITPIRMLNSVHKPERGSADMKLLSSSVHSLLSLEERNKGSGPRSSMKVDKSFGSAMMDVLPASAPHQPVQVLSGLSESSSMSPTVSFGPRTKVVHASTLDRVLKTAQQPALVVETSTAATGTPSTVLHAARPPIKLLLSSSVPADSAISGQTSCPNNVQISVPPAIINPRTALYTANTKVAFSAMSSMPVGPLQGGFCANSNTASPSSHPSTSFANMATLPSCPAPSSSPALSSVPESSFYSSSGGGGSTGNIPASNPNHHHHHHHQQPPAPPQPAPPPPGCIVCTSCGCSGSCGSSGLTVSYANYFQHPFSGPSVFTFPFLPFSPMCSSGYVSAQQYGGGSTFPVVHAPYSSSGTPDPVLSGQSTFAVPPMQNFMAGTAGVYQTQGLVGSSNGSSHKKSGNLSCYNCGATGHRAQDCKQPSMDFNRPGTFRLKYAPPAESLDSTD” here?
**A.** soluble

**Q.** Which “soluble on expression in E. coli” value does the source give for “GPGSHQIRLLPLTDGFGDASMAGGTSAKIVSPMPGKVSKFLVNSGDFVEKGQALMIVEAMKMEHPVKALQDGQVSFLVKEGEVVGSDHVLATVVQKE” here?
**A.** soluble

**Q.** With “GPGSMAGVLHETATTVSYRGALCKLAGVELQGINLSPPQRLCQLELLISREINWLAAVLEEWEEKYMLFTCVPYRGVVDAFTTLLRTIKRHLETENSSKDNEKEWDALLASSITEFQVEVMEIGKGKSY” as the sequence, how does the “soluble on expression in E. coli” value read?
**A.** soluble

**Q.** Which “soluble on expression in E. coli” value does the source give for “GPGSMAKWNALSAEIEAARASGDHTKLLAHVHVGLQMLQEIGATNAPIQCESLLCMEASQAHYKMMQYDEALQCAERACESLLRGCKAELQDKAQIAEIEVFMGFVLCKQGGHSAAVEAQELLQKVLHWIDVDAKSAMPMQAVAAVNLRRSVLTGLGLSTTVQATTLASKGETAEAKVLYAKGLDTLIEALNQHIDENDVELVKMTLEAILTSFEGLDDVSQAVATCRKYISWCRRHDDASGVADGESMLTALCARQKIENPLEAEKAKETEEATK” here?
**A.** soluble
